These results are taken from IntAct's records for PubMed 22632831.

B1: Transcription cofactor vestigial-like protein 1 (Mus musculus), Q99NC0 (parent)
chain: MEEMKKNGVWIPESSQKPVKTEWNAGSVIFTYFEGDINSMVDEHFSRALRNLKRPHKCSSSSHSDNLTLKNGVNKTRTDTSHTDRERKVESSQTENSGELKDVPVEEKGTNKSMPPNQRHLSSWTIAQPAASPENGARSSSLDEYGLKAMDQHSLSMPKTPSALPLEPWHFSSLARPGFIAPAYFPVFPDRHLTPEVYRVFPDRHLTPEVYHVFPDRHLTPEVYPDGRCGPLQHLVQQDRYQNHPLEPAARENCSPAKIAGSTGSLMNLPPYPVHYKKKICARGAASASLDDERSPSPKRRRDAYYY

Variants of B1 are the subject of this assay. As to conditions: with Tead4, Q62296-1.
Chain of Tead4, Q62296-1 (Q62296 whole entry): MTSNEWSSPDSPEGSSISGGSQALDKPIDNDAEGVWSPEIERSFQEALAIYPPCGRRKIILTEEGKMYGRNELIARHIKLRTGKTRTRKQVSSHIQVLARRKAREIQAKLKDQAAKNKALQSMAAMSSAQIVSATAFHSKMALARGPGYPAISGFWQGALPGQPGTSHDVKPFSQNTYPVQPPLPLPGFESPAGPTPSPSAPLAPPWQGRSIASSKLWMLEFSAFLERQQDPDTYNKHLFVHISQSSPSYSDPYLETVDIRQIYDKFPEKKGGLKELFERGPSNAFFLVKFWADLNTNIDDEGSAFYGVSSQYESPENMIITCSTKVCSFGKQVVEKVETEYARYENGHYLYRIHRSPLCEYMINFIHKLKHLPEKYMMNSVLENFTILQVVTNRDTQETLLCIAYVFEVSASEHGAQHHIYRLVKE
As to MEEMKKNGVWIPESSQKPVKTEWNAGSVIFTYFEGDINSMVDEAASRALRNLKRPHKCSSSSHSDNLTLKNGVNKTRTDTSHTDRERKVESSQTENSGELKDVPVEEKGTNKSMPPNQRHLSSWTIAQPAASPENGARSSSLDEYGLKAMDQHSLSMPKTPSALPLEPWHFSSLARPGFIAPAYFPVFPDRHLTPEVYRVFPDRHLTPEVYHVFPDRHLTPEVYPDGRCGPLQHLVQQDRYQNHPLEPAARENCSPAKIAGSTGSLMNLPPYPVHYKKKICARGAASASLDDERSPSPKRRRDAYYY [H44A;F45A], the “effect of a mutation on the interaction” value was “decreasing interaction strength”.
